The values below come from PMC2632915.

Experiment [1] deals with Hera_208–510 (C-terminal RecA domain, dimerization domain and RNA-binding domain of T. thermophilus Hera) (Thermus thermophilus). Put plainly: SEC. (In general: In gel filtration, larger molecules generally elute earlier.)
Experiment [2] has as its target Hera_208–419 (C-terminal RecA domain and dimerization domain of T. thermophilus Hera) (Thermus thermophilus). As to the kind of experiment: crystal structure.
The target is the same in experiment [3]. Put plainly: SEC.
Experiment [4] shares this target. Put plainly: SEC. This is another data set of the same source.

As for “Hera_208–510 (C-terminal RecA domain, dimerization domain and RNA-binding domain of T. thermophilus Hera) (domain or fragment)”, the stoichiometry N (commonly the number of molecules, sites or subunits per partner or assembly) in experiment [1] turned out to be 2.
Regarding “Hera_208–419 (C-terminal RecA domain and dimerization domain of T. thermophilus Hera) (domain or fragment)”, the stoichiometry N in experiment [2], in experiment [3] and in experiment [4] was 2 each time.
